From patent US20160194399A1

How the values were obtained:
[1] = target: SP34-binding peptide 15253; test: flow cytometry on peptide-displaying E. coli, 1 nM SP34-dylight-488 with 100 nM isotype control, normalised to peptide expression (yPet-Mona)
[2] = target: SP34-binding peptide 15253; test: flow cytometry on peptide-displaying E. coli, 10 nM SP34-dylight-488 with 100 nM isotype control, normalised to peptide expression (yPet-Mona)
[3] = target: SP34-binding peptide 15253; test: flow cytometry on peptide-displaying E. coli, 0.1 nM SP34-dylight-488 with 100 nM isotype control, normalised to peptide expression (yPet-Mona)
[4] = target: SP34-binding peptide 15253; test: flow cytometry on peptide-displaying E. coli, 100 nM SP34-dylight-488 with 100 nM isotype control, normalised to peptide expression (yPet-Mona)
[5] = target: SP34-binding peptide 15253; test: flow cytometry on peptide-displaying E. coli, 1 nM SP34-dylight-488 with 100 nM free human CD3ε as competitor, normalised to peptide expression (yPet-Mona)

B1: Anti-CD3ε antibody SP34 (antibody, V domains shown)
VH: EVQLVESGGGLVQPKGSLKLSCAASGFTFNTYAMNWVRQAPGKGLEWVARIRSKYNNYATYYADSVKDRFTISRDDSQSILYLQMNNLKTEDTAMYYCVRHGNFGNSYVSWFAYWGQGTLVTVSA
VL: QAVVTQESALTTSPGETVTLTCRSSTGAVTTSNYANWVQEKPDHLFTGLIGGTNKRAPGVPARFSGSLIGDKAALTITGAQTEDEAIYFCALWYSNLWVFGGGTKLTVL
expression normalized binding [1]: 0.68
expression normalized binding [2]: 0.98
expression normalized binding [3]: 0.55
expression normalized binding [4]: 2.53
expression normalized binding [5]: 0.53
